Test results: patent publication US20020127232A1
Blank lines part the entries; values can stand above or below the molecule they belong to.

What was measured:
[1] = biological target: α2M receptor on peritoneal macrophages of C57BL/6 mice (mouse) (UniProt Q91ZX7); test: saturation binding of 125I-labeled ligand (0.23-60 nM) to mouse peritoneal macrophages at 4 °C for 16 h; one-site fit; concentration based on the mixture of slow and fast forms
[2] = biological target: α2M receptor on peritoneal macrophages of C57BL/6 mice (mouse) (UniProt Q91ZX7); test: saturation binding of 125I-labeled ligand (0.23-60 nM) to mouse peritoneal macrophages at 4 °C for 16 h; one-site fit

- Kd [1]: 8 nM
Molecule: α2M*-lysozyme complex formed by incubation at 50° C. (5 h), radio-iodinated with Na125I (from UniProt P01023 24-1474; P00698 19-147)

- Kd [2]: 5 nM
B1: α2-macroglobulin* (NH3-treated, thiol ester-cleaved human α2-macroglobulin) (protein, UniProt P01023 24-1474, looked up)
chain: SVSGKPQYMVLVPSLLHTETTEKGCVLLSYLNETVTVSASLESVRGNRSLFTDLEAENDVLHCVAFAVPKSSSNEEVMFLTVQVKGPTQEFKKRTTVMVKNEDSLVFVQTDKSIYKPGQTVKFRVVSMDENFHPLNELIPLVYIQDPKGNRIAQWQSFQLEGGLKQFSFPLSSEPFQGSYKVVVQKKSGGRTEHPFTVEEFVLPKFEVQVTVPKIITILEEEMNVSVCGLYTYGKPVPGHVTVSICRKYSDASDCHGEDSQAFCEKFSGQLNSHGCFYQQVKTKVFQLKRKEYEMKLHTEAQIQEEGTVVELTGRQSSEITRTITKLSFVKVDSHFRQGIPFFGQVRLVDGKGVPIPNKVIFIRGNEANYYSNATTDEHGLVQFSINTTNVMGTSLTVRVNYKDRSPCYGYQWVSEEHEEAHHTAYLVFSPSKSFVHLEPMSHELPCGHTQTVQAHYILNGGTLLGLKKLSFYYLIMAKGGIVRTGTHGLLVKQEDMKGHFSISIPVKSDIAPVARLLIYAVLPTGDVIGDSAKYDVENCLANKVDLSFSPSQSLPASHAHLRVTAAPQSVCALRAVDQSVLLMKPDAELSASSVYNLLPEKDLTGFPGPLNDQDNEDCINRHNVYINGITYTPVSSTNEKDMYSFLEDMGLKAFTNSKIRKPKMCPQLQQYEMHGPEGLRVGFYESDVMGRGHARLVHVEEPHTETVRKYFPETWIWDLVVVNSAGVAEVGVTVPDTITEWKAGAFCLSEDAGLGISSTASLRAFQPFFVELTMPYSVIRGEAFTLKATVLNYLPKCIRVSVQLEASPAFLAVPVEKEQAPHCICANGRQTVSWAVTPKSLGNVNFTVSAEALESQELCGTEVPSVPEHGRKDTVIKPLLVEPEGLEKETTFNSLLCPSGGEVSEELSLKLPPNVVEESARASVSVLGDILGSAMQNTQNLLQMPYGCGEQNMVLFAPNIYVLDYLNETQQLTPEIKSKAIGYLNTGYQRQLNYKHYDGSYSTFGERYGRNQGNTWLTAFVLKTFAQARAYIFIDEAHITQALIWLSQRQKDNGCFRSSGSLLNNAIKGGVEDEVTLSAYITIALLEIPLTVTHPVVRNALFCLESAWKTAQEGDHGSHVYTKALLAYAFALAGNQDKRKEVLKSLNEEAVKKDNSVHWERPQKPKAPVGHFYEPQAPSAEVEMTSYVLLAYLTAQPAPTSEDLTSATNIVKWITKQQNAQGGFSSTQDTVVALHALSKYGAATFTRTGKAAQVTIQSSGTFSSKFQVDNNNRLLLQQVSLPELPGEYSMKVTGEGCVYLQTSLKYNILPEKEEFPFALGVQTLPQTCDEPKAHTSFQISLSVSYTGSRSASNMAIVDVKMVSGFIPLKPTVKMLERSNHVSRTEVSSNHVLIYLDKVSNQTLSLFFTVLQDVPVRDLKPAIVKVYDYYETDEFAIAEYNAPCSKDLGNA
modifications: thiol ester cleaved by NH3: free Cys949, Gln952 modified with -NH2; bait region intact; radio-iodinated with Na125I in the macrophage binding study
